Data on one molecule can be found in patent US20250049935, “BOTTLEBRUSH CONJUGATES FOR USE AS OLIGONUCLEOTIDE ENHANCERS” (Northeastern University, published 2025).

For the series, the target named is alpha thrombin (Homo sapiens, UniProt P00734;P00734 P00734:328-363,P00734:364-622). As to the kind of experiment: MST; 20 mM HEPES pH 7.4, 150 mM NaCl, 2 mM CaCl2, 0.05% Tween; 10 nM thrombin.

As a reminder, the Kd is the concentration at which binding is half-saturated. With GGTTGGTGTGGTTGG (structured_DNA) [HD1], the Kd was found to be 5.4 nM.
